± gives the standard deviation of the averaged measurements.
Each sequence was assayed on Saccharomyces cerevisiae (assay: protein stability index of tFT-peptide fusion (C-terminal peptide) (PSI (0-1 scale)); higher = more stable (slower turnover)). Settings: genetic background: das1 deletion; temperature: 30 C.
Procedure: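 MPS profiling in S. cerevisiae of the yeast C-terminome library: the last 12 aa of each annotated ORF are fused to the C-terminus of a sfGFP-mCherry timer, after a GGGS linker. Cells are FACS-sorted into 8 mCherry/sfGFP bins and deep-sequenced. PSI runs from 0 (unstable) to 1 (stable); wild type and das1Δ backgrounds, two technical replicates each.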
With RRKKKLMDELNL [ISY1 C-terminal 12 aa] the protein stability index was 0.703 ± 0.04.
In the case of RRSFFSVFRSEK [AKL1 C-terminal 12 aa], the protein stability index is reported as 0.68 ± 0.019.
Sequence RSHRKQPLKRKD [BRE5 C-terminal 12 aa] has a protein stability index of 0.69 ± 0.025.
For RTHAMLNDIQNI [BNR1 C-terminal 12 aa], the protein stability index was 0.72 ± 0.022.
With RVKSLKVGRKSQ [PAL1 C-terminal 12 aa] the protein stability index was 0.688 ± 0.02.
With RVLNNLIVSHNK [MOT3 C-terminal 12 aa] the protein stability index was 0.7102 ± 0.003.
RVSLEKEAKQHG [ERV2 C-terminal 12 aa] was tested, and the protein stability index was 0.715 ± 0.025.
In the case of RWFKKKKETGGS [BUD2 C-terminal 12 aa], the protein stability index is reported as 0.698 ± 0.0098.
With RYRLEKVIGKRW [SPO20 C-terminal 12 aa] the protein stability index was 0.704 ± 0.03.
Sequence SAIYLLIFRSTR [YPR177C C-terminal 12 aa] has a protein stability index of 0.56459 ± 0.00029.
SAMTSKVLSFFL [RRT7 C-terminal 12 aa] showed a protein stability index of 0.7094 ± 0.0069.
SCAKDILGEENF [BRE4 C-terminal 12 aa] gave a protein stability index of 0.687 ± 0.0079.
SDAVAEANDIDD [TOM20 C-terminal 12 aa] gave a protein stability index of 0.673 ± 0.051.
SDEGHAHEDCAK [LOG1 C-terminal 12 aa] showed a protein stability index of 0.679 ± 0.011.
Work on SFSRIDCCLPDE [TDA5 C-terminal 12 aa] yielded a protein stability index of 0.72 ± 0.013.
SGDIVAVIETLA [DUR12 C-terminal 12 aa] gave a protein stability index of 0.51 ± 0.033.
In the case of SGFQFPFFGEEK [MRPL7 C-terminal 12 aa], the protein stability index is reported as 0.717 ± 0.014.
Work on SGSRVVRKLFEL [FUS2 C-terminal 12 aa] yielded a protein stability index of 0.6964 ± 0.0031.
For “SGSVYIGSVFLI [YGR121W-A C-terminal 12 aa]”, the protein stability index was 0.692 ± 0.029.
Sequence “SGWSAKIPVSMI [YCR045W-A C-terminal 12 aa]” has a protein stability index of 0.704 ± 0.014.
Work on SGYDYFDVSVSG [YAT1 C-terminal 12 aa] yielded a protein stability index of 0.71 ± 0.022.
SHKGFFQKLGCC [YCK1 C-terminal 12 aa] showed a protein stability index of 0.692 ± 0.0098.
SIDKWFFISGSV [IPP1 C-terminal 12 aa] showed a protein stability index of 0.726 ± 0.013.
With SIHIDDFENENN [YGL036W C-terminal 12 aa] the protein stability index was 0.7059 ± 0.0061.
In the case of SINGVNLELIKD [MIX14 C-terminal 12 aa], the protein stability index is reported as 0.691 ± 0.041.
Work on SKFTGRKRRHRF [BUD23 C-terminal 12 aa] yielded a protein stability index of 0.67693 ± 0.00035.
SLDKMAQQLGVE [YKR005C C-terminal 12 aa] gave a protein stability index of 0.698 ± 0.016.
SLEAVSKMDKLA [AAT1 C-terminal 12 aa] gave a protein stability index of 0.723 ± 0.012.
Sequence SLQFIGEETSSL [YDL026W C-terminal 12 aa] has a protein stability index of 0.708 ± 0.01.
In the case of SLSLRNHNSSQL [CLN1 C-terminal 12 aa], the protein stability index is reported as 0.708 ± 0.024.
SNKLKGNPNQVF [MTG1 C-terminal 12 aa] gave a protein stability index of 0.721 ± 0.0079.
Work on SNRILALGYILL [ATG32 C-terminal 12 aa] yielded a protein stability index of 0.669 ± 0.0077.
For SNSLPKLKFHSM [OCA6 C-terminal 12 aa], the protein stability index was 0.725 ± 0.044.
With SPKEEKRFKFKL [YGR127W C-terminal 12 aa] the protein stability index was 0.739 ± 0.046.

Same assay, conditions: genetic background: wild type; temperature: 30 C
For RRKKKLMDELNL [ISY1 C-terminal 12 aa], the protein stability index was 0.669 ± 0.017.
Sequence RRSFFSVFRSEK [AKL1 C-terminal 12 aa] has a protein stability index of 0.746 ± 0.049.
Work on RSHRKQPLKRKD [BRE5 C-terminal 12 aa] yielded a protein stability index of 0.645 ± 0.019.
For RTHAMLNDIQNI [BNR1 C-terminal 12 aa], the protein stability index was 0.721 ± 0.091.
RVKSLKVGRKSQ [PAL1 C-terminal 12 aa] gave a protein stability index of 0.684 ± 0.0082.
RVLNNLIVSHNK [MOT3 C-terminal 12 aa] was tested, and the protein stability index was 0.735 ± 0.078.
Work on RVSLEKEAKQHG [ERV2 C-terminal 12 aa] yielded a protein stability index of 0.673 ± 0.0072.
RWFKKKKETGGS [BUD2 C-terminal 12 aa] was tested, and the protein stability index was 0.71919 ± 0.00068.
Work on RYRLEKVIGKRW [SPO20 C-terminal 12 aa] yielded a protein stability index of 0.676 ± 0.022.
Sequence SAIYLLIFRSTR [YPR177C C-terminal 12 aa] has a protein stability index of 0.569 ± 0.018.
SAMTSKVLSFFL [RRT7 C-terminal 12 aa] gave a protein stability index of 0.696 ± 0.019.
SCAKDILGEENF [BRE4 C-terminal 12 aa] was tested, and the protein stability index was 0.661 ± 0.04.
SDAVAEANDIDD [TOM20 C-terminal 12 aa] showed a protein stability index of 0.72 ± 0.047.
Work on SDEGHAHEDCAK [LOG1 C-terminal 12 aa] yielded a protein stability index of 0.669 ± 0.015.
In the case of SFSRIDCCLPDE [TDA5 C-terminal 12 aa], the protein stability index is reported as 0.707 ± 0.051.
With SGDIVAVIETLA [DUR12 C-terminal 12 aa] the protein stability index was 0.571 ± 0.049.
Work on SGFQFPFFGEEK [MRPL7 C-terminal 12 aa] yielded a protein stability index of 0.695 ± 0.037.
For SGSRVVRKLFEL [FUS2 C-terminal 12 aa], the protein stability index was 0.7 ± 0.016.
For “SGSVYIGSVFLI [YGR121W-A C-terminal 12 aa]”, the protein stability index was 0.6421 ± 0.0012.
For “SGWSAKIPVSMI [YCR045W-A C-terminal 12 aa]”, the protein stability index was 0.698 ± 0.0077.
SGYDYFDVSVSG [YAT1 C-terminal 12 aa] gave a protein stability index of 0.712 ± 0.015.
In the case of SHKGFFQKLGCC [YCK1 C-terminal 12 aa], the protein stability index is reported as 0.677 ± 0.01.
For SIDKWFFISGSV [IPP1 C-terminal 12 aa], the protein stability index was 0.709 ± 0.0086.
For SIHIDDFENENN [YGL036W C-terminal 12 aa], the protein stability index was 0.675 ± 0.023.
SINGVNLELIKD [MIX14 C-terminal 12 aa] was tested, and the protein stability index was 0.635 ± 0.016.
Work on SKFTGRKRRHRF [BUD23 C-terminal 12 aa] yielded a protein stability index of 0.711 ± 0.05.
SLDKMAQQLGVE [YKR005C C-terminal 12 aa] was tested, and the protein stability index was 0.677 ± 0.036.
With SLEAVSKMDKLA [AAT1 C-terminal 12 aa] the protein stability index was 0.679 ± 0.014.
With SLQFIGEETSSL [YDL026W C-terminal 12 aa] the protein stability index was 0.684 ± 0.012.
SLSLRNHNSSQL [CLN1 C-terminal 12 aa] showed a protein stability index of 0.701 ± 0.017.
For SNKLKGNPNQVF [MTG1 C-terminal 12 aa], the protein stability index was 0.75045 ± 0.00033.
For SNRILALGYILL [ATG32 C-terminal 12 aa], the protein stability index was 0.658 ± 0.0079.
For SNSLPKLKFHSM [OCA6 C-terminal 12 aa], the protein stability index was 0.681 ± 0.011.
SPKEEKRFKFKL [YGR127W C-terminal 12 aa] gave a protein stability index of 0.801 ± 0.047.

— the supplement of paper PMC10724198
